Positions count from the first letter of the chain named. Names and notes keep the numbering of the source.
T1: EsCas13d, nuclease-dead (Eubacterium siraeum, UniProt B0MS50, R295A;H300A;R849A;H854A)
T1 sequence: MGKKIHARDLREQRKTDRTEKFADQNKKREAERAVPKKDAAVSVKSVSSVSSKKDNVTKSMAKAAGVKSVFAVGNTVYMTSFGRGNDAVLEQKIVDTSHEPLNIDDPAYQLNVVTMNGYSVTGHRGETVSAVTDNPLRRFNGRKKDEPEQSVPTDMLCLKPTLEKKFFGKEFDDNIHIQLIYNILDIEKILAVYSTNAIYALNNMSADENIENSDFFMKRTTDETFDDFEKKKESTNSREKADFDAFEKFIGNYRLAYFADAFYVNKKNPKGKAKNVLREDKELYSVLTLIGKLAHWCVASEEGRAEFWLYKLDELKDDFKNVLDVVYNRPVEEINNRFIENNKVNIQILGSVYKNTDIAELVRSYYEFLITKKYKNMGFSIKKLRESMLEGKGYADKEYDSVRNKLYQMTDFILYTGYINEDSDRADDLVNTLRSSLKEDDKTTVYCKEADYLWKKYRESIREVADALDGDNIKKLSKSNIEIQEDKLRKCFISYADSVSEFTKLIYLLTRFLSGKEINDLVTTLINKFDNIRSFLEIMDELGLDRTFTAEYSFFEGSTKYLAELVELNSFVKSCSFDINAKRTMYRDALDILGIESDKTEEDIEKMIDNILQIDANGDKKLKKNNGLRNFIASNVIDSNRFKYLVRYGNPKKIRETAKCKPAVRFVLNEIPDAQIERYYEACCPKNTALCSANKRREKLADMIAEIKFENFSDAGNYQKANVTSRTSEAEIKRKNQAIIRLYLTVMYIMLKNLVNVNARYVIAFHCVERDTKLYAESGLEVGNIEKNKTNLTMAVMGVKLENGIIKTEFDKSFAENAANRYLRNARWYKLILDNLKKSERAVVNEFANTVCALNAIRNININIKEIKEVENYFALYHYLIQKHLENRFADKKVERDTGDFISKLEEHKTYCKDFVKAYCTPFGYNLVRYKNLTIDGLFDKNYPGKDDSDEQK

B1: target 1 insA 3' of 3,insU 3' of 1 (mixed)
RNA 1: CACCCGUGCAAAAAUGCAGGGGUCUAAAACUGAGCGGAUAACCUCUCUAUGG
RNA 2: GGGAAUGGAUCCACAUCUACGAAUUCGUACCAUAGAGAGGUUAUCCGCUACAUCCGAGAUCGGAAGAGCACACGU
B2: target 1 C7U,G17U (mixed)
RNA 1: B1 RNA 1
RNA 2: GGGAAUGGAUCCACAUCUACGAAUUCGUACCAUAUAGAGGUUAUUCGCUCACCGAGAUCGGAAGAGCACACGU
B3: target 1 insU 3' of 18,insA 3' of 4 (mixed)
RNA 1: B1 RNA 1
RNA 2: GGGAAUGGAUCCACAUCUACGAAUUCGUACCAUAUGAGAGGUUAUCCGCAUCACCGAGAUCGGAAGAGCACACGU
B4: target 1 G5C,U19C (mixed)
RNA 1: B1 RNA 1
RNA 2: B2 RNA 2 with U33C, U35G, U45C, G47C
B5: target 1 A1C,G5U (mixed)
RNA 1: B1 RNA 1
RNA 2: B2 RNA 2 with U35G, U45C, G47U, A51C
B6: target 1 insC 3' of 14,insA 3' of 8 (mixed)
RNA 1: B1 RNA 1
RNA 2: B3 RNA 2 with U35G, G36A, A37G, G38A, A39C, C46A, G48C, C49G, A50C
B7: target 1 del5,del15 (mixed)
RNA 1: B1 RNA 1
RNA 2: GGGAAUGGAUCCACAUCUACGAAUUCGUACCAUAGAAGGUUAUCCCUCACCGAGAUCGGAAGAGCACACGU
B8: target 1 insU 3' of 14,insA 3' of 7 (mixed)
RNA 1: B1 RNA 1
RNA 2: B3 RNA 2 with U35G, G36A, A37G, G38A, A39U, C47A, G48C, C49G, A50C
B9: target 1 insU 3' of 20,insA 3' of 5 (mixed)
RNA 1: B1 RNA 1
RNA 2: B3 RNA 2 with A34U, U35A, C49A, A50C
B10: target 1 insA 3' of 15,insG 3' of 14 (mixed)
RNA 1: B1 RNA 1
RNA 2: GGGAAUGGAUCCACAUCUACGAAUUCGUACCAUAGAGAAGGGUUAUCCGCUCACCGAGAUCGGAAGAGCACACGU
B11: target 1 insC 3' of 11,insG 3' of 8 (mixed)
RNA 1: B1 RNA 1
RNA 2: B10 RNA 2 with A39G, G41U, G42C, U44A, A45U, U46G
B12: target 1 del16,del19 (mixed)
RNA 1: B1 RNA 1
RNA 2: B7 RNA 2 with U33A, A34G, A37G, G39U, U41A, A42U, U43C, C45G
B13: target 1 insG 3' of 19,insC 3' of 3 (mixed)
RNA 1: B1 RNA 1
RNA 2: B3 RNA 2 with A34G, U35A, A50U, U51C
B14: target 1 U10G,U11C (mixed)
RNA 1: B1 RNA 1
RNA 2: B2 RNA 2 with U35G, U41C, U42G, U45C
B15: target 1 insC 3' of 17,insA 3' of 3 (mixed)
RNA 1: B1 RNA 1
RNA 2: B3 RNA 2 with U35G, G36C, A50U, U51A
B16: target 1 insA 3' of 22,insC 3' of 9 (mixed)
RNA 1: B1 RNA 1
RNA 2: GGGAAUGGAUCCACAUCUACGAAUUCGUACACAUAGAGAGGUUACUCCGCUCACCGAGAUCGGAAGAGCACACGU
B17: target 1 C6A,A14C (mixed)
RNA 1: B1 RNA 1
RNA 2: B2 RNA 2 with U35G, A38C, U45C, C46A

Molecular target: T1, EsCas13d, nuclease-dead
Assay: crRNA (strand 1, pre-loaded); Mg2+; 40 mM Tris-HCl pH 7.5, 150 mM NaCl, 6 mM MgCl2, 1 mM DTT, 0.1% Tween-20, 0.2 mg/ml BSA; 25 C; 10 min per concentration, then washed
Details: tags: His6-TwinStrep-SUMO cleaved; N-terminal SNAP kept (SNAP-Surface 488); label: 3' end held by stalled T7 RNA polymerase

Row | Binder | Kd
1 | B1 | 9.2 ± 0.5 nM
2 | B2 | 19.7 ± 1.8 nM
3 | B3 | 20.9 ± 1.7 nM
4 | B4 | 32 ± 6 nM
5 | B5 | 33 ± 4 nM
6 | B6 | 49 ± 5 nM
7 | B7 | 27.3 ± 2.6 nM
8 | B8 | 32.2 ± 3 nM
9 | B9 | 12.2 ± 0.9 nM
10 | B10 | 10.6 ± 1.2 nM
11 | B11 | 64 ± 8 nM
12 | B12 | 73 ± 20 nM
13 | B13 | 62 ± 8 nM
14 | B14 | 14.1 ± 0.6 nM
15 | B15 | 53 ± 8 nM
16 | B16 | 14.4 ± 0.6 nM
17 | B17 | 11.7 ± 0.5 nM

From publication PMC10786891, “Massively parallel profiling of RNA-targeting CRISPR-Cas13d”
